Source: PMC4972647 (Nature structural & molecular biology, 2016)

T1: GST-APPBP1 (human, UniProt Q13564 1-534)
T1 sequence: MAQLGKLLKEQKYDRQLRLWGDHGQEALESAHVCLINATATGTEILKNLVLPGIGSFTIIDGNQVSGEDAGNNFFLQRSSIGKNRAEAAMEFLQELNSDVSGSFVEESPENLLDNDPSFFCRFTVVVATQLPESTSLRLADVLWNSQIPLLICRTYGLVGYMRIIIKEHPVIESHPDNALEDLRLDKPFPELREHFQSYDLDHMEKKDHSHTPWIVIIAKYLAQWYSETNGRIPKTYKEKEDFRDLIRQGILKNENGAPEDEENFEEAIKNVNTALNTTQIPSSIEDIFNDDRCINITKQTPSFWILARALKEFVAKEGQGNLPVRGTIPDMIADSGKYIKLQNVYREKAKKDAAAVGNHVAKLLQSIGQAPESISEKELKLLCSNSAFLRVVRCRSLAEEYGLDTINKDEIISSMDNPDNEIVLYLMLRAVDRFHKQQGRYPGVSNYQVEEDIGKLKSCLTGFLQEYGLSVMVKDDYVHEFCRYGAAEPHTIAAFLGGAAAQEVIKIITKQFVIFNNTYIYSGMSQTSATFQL

B1: ABD (V541-E685) of human GlyRS (domain or fragment)
chain: VREGDEQRTFFSFPAVVAPFKCSVLPLSQNQEFMPFVKELSEALTRHGVSHKVDDSSGSIGRRYARTDEIGVAFGVTIDFDTVNKTPHTATLRDRDSMRQIRAEISELPSIVQDLANGNITWADVEARYPLFEGQETGKKETIEE

Experiments:
Assay in all cases: BLI
[1] = target: NEDD8-conjugated Ubc12 (Ubc12(C111S)^N8-His) (human) (UniProt P61081)
[2] = target: N-terminal GST-tagged GlyRS (human)
[3] = target: T1, GST-APPBP1

| Molecule | Kd [1] [nM] | Kd [2] [nM] | further results |
| --- | --- | --- | --- |
| G526R GlyRS (enzyme) | 39.5 | – | – |
| NEDD8-conjugated Ubc12 (Ubc12(C111S)^N8-His) (from UniProt P61081;Q15843) (complex) | – | 4.09 | – |
| Tag-free wild type human GlyRS (enzyme) | 3.21 | – | – |
| purified recombinant human NEDD8 (from UniProt Q15843 1-76) (natural protein) | – | 126 | – |
| purified recombinant human Ubc12 (from UniProt P61081 1-183) (enzyme) | – | 488 | – |
| Δ84-93 GlyRS (F84-L93 replaced by GGG) (from UniProt P41250-2 94-685) (enzyme) | 27 | – | – |
| ΔInsertion1 GlyRS (F147-F224 replaced by GSGSGG) (from UniProt P41250-2 225-685) (enzyme) | 4.32 | – | – |
| B1 | – | – | binding result [3]: binds |
